How the values were obtained:
[1] = target: T1, DNA polymerase alpha catalytic core (p180, hPolα) (Homo sapiens, UniProt P09884 338-1259); test: fluorescence anisotropy; 5 mM MgCl2, no dNTP; 50 mM Bis-Tris pH 6.5, 100 mM NaCl, 5 mM MgCl2, 23 °C; 2 nM labeled duplex, 0.1-16000 nM protein, >30 min; settings: protein: recombinant; tags: N-terminal His6-SUMO (His6-SMT) removed by SUMO protease; label: 5' 6-FAM on template; template 5' overhang 20 nt, one replicative end
[2] = target: T1, DNA polymerase alpha catalytic core …; test: X-ray crystallography (3.3 Å); crystallized with Mg2+ and dCTP; neither bound in active site (binary complex); 50 mM Bis-Tris pH 6.5, 100 mM NaCl, 5 mM MgCl2, 23 °C; 2 nM labeled duplex, 0.1-16000 nM protein, >30 min; settings: protein: recombinant; tags: N-terminal His6-SUMO (His6-SMT) removed by SUMO protease; template 5' overhang 5 nt, one replicative end

T1 sequence (P09884 338-1259): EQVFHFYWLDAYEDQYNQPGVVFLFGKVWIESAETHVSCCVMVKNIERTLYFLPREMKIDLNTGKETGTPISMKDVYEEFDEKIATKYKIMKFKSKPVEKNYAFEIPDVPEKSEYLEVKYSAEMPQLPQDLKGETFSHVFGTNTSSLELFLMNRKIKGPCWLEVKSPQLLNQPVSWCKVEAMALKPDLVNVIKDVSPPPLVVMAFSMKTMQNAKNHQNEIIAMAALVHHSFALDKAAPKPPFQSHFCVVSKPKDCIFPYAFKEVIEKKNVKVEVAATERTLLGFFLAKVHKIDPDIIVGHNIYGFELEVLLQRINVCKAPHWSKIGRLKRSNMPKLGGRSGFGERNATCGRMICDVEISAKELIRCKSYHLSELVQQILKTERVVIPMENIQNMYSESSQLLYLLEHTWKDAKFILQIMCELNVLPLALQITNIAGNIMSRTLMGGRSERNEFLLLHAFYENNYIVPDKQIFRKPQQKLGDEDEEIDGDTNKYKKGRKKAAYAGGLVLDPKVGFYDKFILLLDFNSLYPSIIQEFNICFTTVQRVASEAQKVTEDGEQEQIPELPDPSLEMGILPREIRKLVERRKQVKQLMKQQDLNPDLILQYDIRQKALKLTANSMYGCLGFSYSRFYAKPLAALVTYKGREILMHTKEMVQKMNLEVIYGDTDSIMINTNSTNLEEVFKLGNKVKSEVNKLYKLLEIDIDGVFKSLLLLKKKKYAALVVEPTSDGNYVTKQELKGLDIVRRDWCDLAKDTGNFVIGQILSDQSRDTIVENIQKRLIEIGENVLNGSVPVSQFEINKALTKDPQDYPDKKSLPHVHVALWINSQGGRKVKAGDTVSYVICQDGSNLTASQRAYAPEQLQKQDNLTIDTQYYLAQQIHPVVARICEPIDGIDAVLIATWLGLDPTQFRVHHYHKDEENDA

B1: 10-nt RNA primer/30-nt DNA template (DNA:RNA)
DNA: CTTAGGATGGAGAAAGGTAAGATGAAGCCG
RNA: CGGCUUCAUC
Kd [1]: ~0.32 µM

B2: 10-nt DNA primer/30-nt DNA template (dsDNA)
DNA 1: B1 DNA
DNA 2: CGGCTTCATC
Kd [1]: ~0.43 µM

B3: 13-nt DNA primer/18-nt DNA template (dsDNA)
DNA 1: TAATGGTAGGGGAAGGAT
DNA 2: ATCCTTCCCCTAC
modifications: primer 3'-terminal dideoxycytosine
binding result [2]: binds

— paper PMC4817131, “Human DNA polymerase α in binary complex with a DNA:DNA template-primer”
